Measured values as given in the DeepSol protein solubility set.

Assay: soluble on expression in E. coli; label from the status in PepcDB or PDB records
In the case of “MGSSHHHHHHSSGRENLYFQGMKLATLKDSTRDGKLVVVSKDLTRCSEVGHIARTLQAALDDWAHAGPRLERVAEGIETGAQPTMRFHEHDAASPLPRAFQWADGSAYVNHVELVRKARNAEMPASFWTDPLIYQGGSDSFLGPRDPILMADDAWGIDMEGEAAVIVDDVPMGATLDEAKAAIRLVMLVNDVSLRGLIPGELAKGFGFYQSKPSSAFSPVAVTPEELGEAWDGGKLHLPLHVDLNGEPFGRANAGIDMTFDFPQLIVHAARTRPLSAGTIIGSGTVSNKLEGGPGRPVSEGGAGYSCIAELRMIETIEGGAPKTQFLKFGDVVRIEMKDRTGHSIFGAIEQKVGKYERG”, the “soluble on expression in E. coli” value is reported as “soluble”.
With “MGSSHHHHHHSSGRENLYFQGMQCNTSIEDGLDGGDITFPSYSPEAEAQNRFLPRSEFPSVRQLVISKQKSRRRREENVFVGKMEDVLVKWRPPASSHRGAIEAINGTHPYQLSTAQFNSRRSDPFGSTKRDESVRSIVESFTDWWKRNSKMFFRDEEEGVRTEHSASQDDQELQLFEEDLFSFHLSPNDMSTRNSEHQVQTPVLFPYEAPTRTKQNPAERKVIEIGDGEELSIYRDVYSNPIPVSYLDTLNLNHSMSVRQTQQQQQQRQQQQYVDSSSAFQCCTDSNWARIFFCHHD” the “soluble on expression in E. coli” value was “soluble”.
In the case of “MGTEFNGLFDEWAHTYDSFVQGEDIQYKEVFAHYEDILEDVVNKSFGNVLEFGVGTGNLTNKLLLAGRTVYGIEPSREMRMIAKEKLPKEFSITEGDFLSFEVPNSIDTIVSTYAFHHLTDDEKNVAIAKYSQLLNKGGKIVFADTIFADQDAYDKTVETSKRKRFPPVSKRFANGILYTYSSYADYFLEHHHHHH”, the “soluble on expression in E. coli” value is reported as “soluble”.
For “MGTKTKKTLFNVDEQMKAIAAQFETLQILNEKGEVVNEAAMPELSDDQLKELMRRMVYTRVLDQRSISLNRQGRLGFYAPTAGQEASQLASHFALEAEDFILPGYRDVPQLVWHGLPLYQAFLFSRGHFMGNQMPENVNALAPQIIIGAQIIQTAGVALGMKLRGKKSVAITYTGDGGASQGDFYEGMNFAGAFKAPAIFVVQNNRYAISTPVEKQSAAKTVAQKAVAAGIYGIQVDGMDPLAVYAATAFARERAVNGEGPTLIETLTFRYGPHTMAGDDPTRYRTKDIENEWEQKDPIVRFRAFLENKGLWSQEVEEKVIEEAKEDIKQAIAKADQAPKQKVTDLMEIMYEKMPYNLAEQYEIYKEKESK”, the “soluble on expression in E. coli” value was “not soluble”.
With “MGVEQILKRKTGVIVGEDVHNLFTYAKEHKFAIPAINVTSSSTAVAALEAARDSKSPIILQTSNGGAAYFAGKGISNEGQNASIKGAIAAAHYIRSIAPAYGIPVVLHSDHCAKKLLPWFDGMLEADEAYFKEHGEPLFSSHMLDLSEETDEENISTCVKYFKRMAAMDQWLEMEIGITGGEEDGVNNENADKEDLYTKPEQVYNVYKALHPISPNFSIAAAFGNCHGLYAGDIALRPEILAEHQKYTREQVGCKEEKPLFLVFHGGSGSTVQEFHTGIDNGVVKVNLDTDCQYAYLTGIRDYVLNKKDYIMSPVGNPEGPEKPNKKFFDPRVWVREGEKTMGAKITKSLETFRTTNTL” the “soluble on expression in E. coli” value was “soluble”.
With “MGVKRKKMGKVAGFTEWTAEDLEAFRARWPIGTAQRLALELYQWTGARCVDVIRLGPQMVGRDGVLTYVQQKTGNPAHVPWTCPAFGLEEQRADLMRCLPVGSPVYMLTEYGKPRTQKGVSQWFSAAAREAGLESRTAHGLRKYRMNALAEHGASVLVMQSWVGHTTLLEVQEYTRRADRRRVISGGHAAALEHHHHHH” the “soluble on expression in E. coli” value was “not soluble”.
In the case of “MHDTMHKIFGATPPIFSYTPILTMNLCIAKATPNVCHSTGNLCKAEMDNVTSWVYDKTQGLFITGE”, the “soluble on expression in E. coli” value is reported as “not soluble”.
With “MHFKTKLKNRRSEVNTCLCIGLDPDEDDIKNFMKNEEQNGYKNIKNNMNSNNNGIENIIKIGKEILLTDGENIQNLSEEDKFFYFFNHFCFYIINNTKEYALVYKMNFAFYIPYGSVGINALKNVFDYLNSMNIPTMLDMKINDIGNTVKNYRKFIFEYLKSDSCTINVYMGTNMLKDICFDYEKNKYYSAYVLIKTTNKDSFIFQNELSINDKQAYIVMADETQKMATELKIEQNNEFIGFVVGSNAFEEMKIIRNKFPDSYILSPGIGAQNGDLYKTLKNGYNKDYEKLLINVGRAITKSPDPKKSSESYYNQIIQIFKDIENGDNIEQV” the “soluble on expression in E. coli” value was “soluble”.
With “MHGLKRSLMIRTVCRGKATTAGADLPQSSQEIEVTTPKSENVPAKSANASTVYRPPYYRKPHQHHEPKHMLQEEFVNAGDASGAGVRVFDYYKTAEMVHSMPTIKEKIDFVSPYERPWTRAEKTWRRDWHPTLMATRKAWGIPPTPAHFDTLDYYKYLTKTRVENESLDDFYHGLRPPTADLQTSFQNTLKSMEFGDGINFSDEDTQKLFGSLIDDAMGGIAHNVSRLADHRVAYDVESEAFWVRSGFMFLYDEEEIGTRDVKRRLNNFPKFIGDDRRKLGELAFVHRDKLAAQVRSKEPSAPLHSFDSEDAKLPIFDTNYNFEETLFSPKVYNLWPDQEPLWQCPGYHADSGESHTYGILGVKSLRPLRKRIAHWMGWENENELESSEEAKQMLDDGARSQAIISMFTTLCAQAHTHGFTQYTDITRSFTSQLVLSDGINFWFAIGQLNTIAINVECDGFVNPRTNYIRIDGPYRLFDYCDKNGQYLSVQEEIDAENKVQRKIAPGLNEKVLERVTQMLMKQ” the “soluble on expression in E. coli” value was “not soluble”.
For “MHHHHHHAADPPPVHDTDGHELRADANYYVLSANRAHGGGLTMAPGHGRHCPLFVSQDPNGQHDGFPVRITPYGVAPSDKIIRLSTDVRISFRAYTTCLQSTEWHIDSELAAGRRHVITGPVKDPSPSGRENAFRIEKYSGAEVHEYKLMSSGDWCQDLGVFRDLKGGAWFLGATEPYHVVVFKKAPPA”, the “soluble on expression in E. coli” value was “soluble”.
For “MHHHHHHHHHHISSASGESQMSLDEIEDVYHTRPGYRPEEYRWGQGGAKIIDYHIQSAGVDFPPSLTGNQQTDFLMKVVFEYDFDCVVPGILIKTLDGLFLYGTNSFLASEGRENISVSRGDVRVFKFSLPVDLNSGDYLLSFGISAGNPQTDMTPLDRRYDSIILHVTKSMDFWGVIDLKSSFTSYQ”, the “soluble on expression in E. coli” value was “soluble”.
In the case of “MHHHHHHLVPRGSMLDFEKPLFEIRNKIESLKESQDKNDVDLQEEIDMLEASLERETKKIYTNLKPWDRVQIARLQERPTTLDYIPYIFDSFMELHGDRNFRDDPAMIGGIGFLNGRAVTVIGQQRGKDTKDNIYRNFGMAHPEGYRKALRLMKQAEKFNRPIFTFIDTKGAYPGKAAEERGQSESIATNLIEMASLKVPVIAIVIGEGGSGGALGIGIANKVLMLENSTYSVISPEGAAALLWKDSNLAKIAAETMKITAHDIKQLGIIDDVISEPLGGAHKDIEQQALAIKSAFVAQLDSLESLSRDEIANDRFEKFRNIGSYIE”, the “soluble on expression in E. coli” value is reported as “soluble”.
In the case of “MHHHHHHSSGRENLYFQGPKCIQCGQYLDDPDLKYGQHPPDAVDEPQMLTNEKLSIFDANESGFESYEALPQHKLTCFSVYCKHGHLCPIDTGLIEKNIELFFSGSAKPIYDDDPSLEGGVNGKNLGPINEWWITGFDGGEKALIGFSTSFAEYILMDPSPEYAPIFGLMQEKIYISKIVVEFLQSNSDSTYEDLINKIETTVPPSGLNLNRFTEDSLLRHAQFVVEQVESYDEAGDSDEQPIFLTPCMRDLIKLAGVTLGQRRAQAR”, the “soluble on expression in E. coli” value is reported as “soluble”.
In the case of “MHHHHHHSSGVDLGTENLYFQSMAWVIDKYGKNEVLRFTQNMMMPIIHYPNEVIVKVHAASVNPIDVNMRSGYGATALNMKRDPLHVKIKGEEFPLTLGRDVSGVVMECGLDVKYFKPGDEVWAAVPPWKQGTLSEFVVVSGNEVSHKPKSLTHTQAASLPYVALTAWSAINKVGGLNDKNCTGKRVLILGASGGVGTFAIQVMKAWDAHVTAVCSQDASELVRKLGADDVIDYKSGSVEEQLKSLKPFDFILDNVGGSTETWAPDFLKKWSGATYVTLVTPFLLNMDRLGIADGMLQTGVTVGSKALKHFWKGVHYRWAFFMASGPCLDDIAELVDAGKIRPVIEQTFPFSKVPEAFLKVERGHARGKTVINVV”, the “soluble on expression in E. coli” value is reported as “soluble”.
For “MHHHHHHSSGVDLGTENLYFQSMPRIDADLKLDFKDVLLRPKRSSLKSRAEVDLERTFTFRNSKQTYSGIPIIVANMDTVGTFEMAAVMSQHSMFTAIHKHYSLDDWKLFATNHPECLQNVAVSSGSGQNDLEKMTSILEAVPQVKFICLDVANGYSEHFVEFVKLVRAKFPEHTIMAGNVVTGEMVEELILSGADIIKVGVGPGSVCTTRTKTGVGYPQLSAVIECADSAHGLKGHIISDGGCTCPGDVAKAFGAGADFVMLGGMFSGHTECAGEVIERNGRKLKLFYGMSSDTAMNKHAGGVAEYRASEGKTVEVPYKGDVENTILDILGGLRSTCTYVGAAKLKELSRRATFIRVTQQHNTVFS”, the “soluble on expression in E. coli” value was “soluble”.
For “MHHHHHHSSGVDLGTENLYFQSNAMKIDYLTLFPEMFDGVLNHSIMKRAQENNKLQINTVNFRDYAINKHNQVDDYPYGGGQGMVLKPEPVFNAMEDLDVTEQARVILMCPQGEPFSHQKAVELSKADHIVFICGHYEGYDERIRTHLVTDEISMGDYVLTGGELPAMTMTDAIVRLIPGVLGNEQSHQDDSFSDGLLEFPQYTRPREFKGLTVPDVLLSGNHANIDAWRHEQKLIRTYNKRPDLIEKYPLTNADKQILERYKIGLKKG”, the “soluble on expression in E. coli” value was “soluble”.
For “MHHHHHHSSQEVGEHREITAEETAELLKNSHSVIITPGYGMAVAQAQYPVAEITEKLRARGINVRFGIHPVAGRLPGHMNVLLAEAKVPYDIVLEMDEINDDFADTDTVLVIGANDTVNPAAQDDPKSPIAGMPVLEVWKAQNVIVFKRSMNTGYAGVQNPLFFKENTHMLFGDAKASVDAILKAL”, the “soluble on expression in E. coli” value was “soluble”.
For “MHHHHHHVSLDKAVIARLRKGGEEFEVLVDPYLARDLKEGKEVNFEDLLAAEEVFKDAKKGERASVDELRKIFGTDDVFEIARKIILEGEVQITAEQRREMLEAKRKQIINFISRNTIDPRTNAPHPPSRIERALEEAKVHIDIFKSVEAQVKDIVKALKPILPLKFEEMEIAIKIPPEHTGRAISALYNFGGVTREEWQRDGSWICVMRIPSGMYGDLMDLLGKVAKGEALTKVLRRIG”, the “soluble on expression in E. coli” value was “soluble”.
In the case of “MHIIDSHCHLNFEGLKERLPEVLSNMEANGVGQALAISVSRESFSEVFAVAEAHEHIYCTIGVHPDSREAEEFSIAEMVEAAAHPKVVGIGETGLDYYWCKGDLSWQHKRFADHIEAANQTGLPVIVHTRDAAADTLAILKECKTNSGVIHCFSEDTAFARAAMDLGLYISFSGIVTFKNAPLVQEAAKYVPDDRILVETDAPFLAPVPKRGRQNEPAFVRHTAEHIAKLRNQTLEQVAAYTTENFYRLFKKVPDMRAVLEHHHHHH”, the “soluble on expression in E. coli” value is reported as “not soluble”.
With “MHKAILNSDLIATKAGDVTVYNYDGETREYISTSNEYLAVGVGIPACSCLDAPGTHKAGYAICRSADFNSWEYVPDHRGETVYSTKTGESKEIKAPGDYPENTTTIAPLSPYDKWDGEKWVTDTEAQHSAAVDAAEAQRQSLIDAAMASISLIQLKLQAGRKLTQAETTRLNAVLDYIDAVTATDTSTAPDVIWPELPEA” the “soluble on expression in E. coli” value was “not soluble”.
In the case of “MHKLIIKYNKQLKMLNLRDGKTYTISEDERADITLKSLGEVIHLEQNNQGTWQANHTSINKVLVRKGDLDDITLQLYTEADYASFAYPSIQDTMTIGPNAYDDMVIQSLMNAIIIKDFQSIQESQYVRIVHDKNTDVYINYELQEQLTNKAYIGDHIYVEGIWLEVQADGLNVLSQNTVASSLIRLTQEMPHAQADDYNTYHRSPRIIHREPTDDIKIERPPQPIQKNNTLEHHHHHH”, the “soluble on expression in E. coli” value is reported as “soluble”.
For “MHKNLFHWLMERGYQVLVEKEVAITLELPFEHLATLEEIGHRAQLAIVIGGDGNMLGRARVLAKYDIPLIGINRGNLGFLTDIDPKNAYSQLEACLERGEFFVEERFLLEAKIERASEIVSTSNAVNEAVIHPAKIAHMIDFHVYINDKFAFSQRSDGLIVSTPTGSTAYSLSAGGPILTPNLNAIALVPMFPHTLTSRPLVVDGDSKISIRFAEHNTSQLEVGCDSQITLPFTPDDVVHIQKSEHKLRLLHLKIIIITMC”, the “soluble on expression in E. coli” value was “soluble”.
